Reference: patent US20220136009, “COMPOSITIONS AND METHODS FOR SELECTIVE GENE REGULATION” (Encoded Therapeutics, Inc., published 2022)

Tests used:
Conditions in all cases: tags: NLS, HA tag
[1] = target: Construct 30 eTF (eZF z13-VPR) (synthetic construct); experiment: cell_activity; SCN1A mRNA by RNAseq in iCell GABA neurons vs CBA-EGFP; SCN1A-selective among 40 neighbouring genes
Method: iCell GABA neurons (Cellular Dynamics) were plated in a 6-well plate (˜1E6 cells/well) and maintained per manufacturer's recommended protocol. 72h following plating, recombinant AAV (serotype AAV-DJ) expressing EGFP or activator (Construct 30), which comprises a zinc finger DBD fused to a VPR TAD driven by a CBA promoter) under the control of a CBA promoter was added to the culture media at approximately 2E11 genome copies/well.
One week following infection, RNA was isolated from cultured cells (Qiagen RNeasy Mini kit), and DNase treated. RNAseq libraries were prepared from the recovered RNA, using the TruSeq Stranded mRNA library kit (Illumina) and sequenced on an Illumina NextSeq (2×75 cycle paired end sequencing). Sequencing reads were aligned to human genome (RNASTAR) and differential expression analysis was performed with DESeq2. Data are presented as fold change with respect to control (AAVDJ-CBA-EGFP) samples (see FIG. 4). Results are shown in TABLE 14 and FIG. 4 illustrates the relative expression of endogenous SCN1A and the 40 nearest neighboring gene transcripts presented as fold changes relative to the control condition. Construct 30, as described in TABLE 1, was able to specifically increase expression of the SCN1A gene, or the Nav1.1 protein, as compared to the other genes examined. […]

[2] = target: Construct 3 eTF (eZF z13-VP64) (synthetic construct); experiment: cell_activity; endogenous SCN1A mRNA in HEK293 vs EGFP-KASH; p=0.149
Method: (§1) HEK293 cells were cultured per standard methods, and transfected (FugeneHD, Promega) with 3 ug plasmid carrying an engineered transcription factor or control construct per well of a 6-well plate. 48h following transfection, cells were collected and RNA was isolated (Qiagen RNeasy Mini kit), and DNase treated. RNA (3 ug) was reverse transcribed using OligoDT primers (Superscript IV, Invitrogen). cDNA samples were analyzed by qPCR using Phusion Polymerase (New England Biolabs) and SYBR Green I: (30s at 98° C., 40×[10 sec at 98° C., 15 sec at 66° C., 15 sec at 72° C.]). Primers against SCN1A (5′-[…]-3′ (SEQ ID NO: 185); 5′-[…]-3′ (SEQ ID NO: 186)) were used to quantify levels of endogenous SCN1A transcript, and relative levels of SCN1A expression were determined by the delta-delta Ct method with GAPDH as a reference gene (5′-[…]′-3′ (SEQ ID NO: 187); 5′-[…]-3′ (SEQ ID NO: 188)). Data are presented as fold changes relative to the control condition.

[3] = target: Construct 4 eTF (eZF z1-VP64) (synthetic construct); experiment: cell_activity; endogenous SCN1A mRNA in HEK293 vs EGFP-KASH; p=0.0097; also about 20-30% Scn1a upregulation in mouse hippocampus
Method: as §1

[4] = target: Construct 29 eTF (eZF z14-VP64) (synthetic construct); experiment: cell_activity; endogenous SCN1A mRNA in HEK293 vs EGFP-KASH; p=0.164
Method: as §1

Chain of Construct 30 eTF (eZF z13-VPR) (synthetic construct) (chain, as listed by the source): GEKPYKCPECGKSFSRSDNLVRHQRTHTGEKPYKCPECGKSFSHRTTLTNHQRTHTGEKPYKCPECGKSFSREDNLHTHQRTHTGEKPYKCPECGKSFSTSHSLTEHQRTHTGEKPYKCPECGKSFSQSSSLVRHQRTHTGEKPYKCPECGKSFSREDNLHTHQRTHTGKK

B1: z13 target site (dsDNA)
DNA 1: TAGGTACCATAGAGTGAG
DNA 2: CTCACTCTATGGTACCTA
B1 gave an activity [1] of 63 fold and an activity [2] of 25.5 fold.

B2: z1 target site (dsDNA)
DNA 1: CTAGGTCAAGTGTAGGAG
DNA 2: CTCCTACACTTGACCTAG
B2 showed an activity [3] of 5.12 fold.

B3: z14 target site (dsDNA)
DNA 1: GAGGATACTGCAGAGGTC
DNA 2: GACCTCTGCAGTATCCTC
In the case of B3, the activity [4] is reported as 8.68 fold.
